Results as given in US20030180744.

How the values were obtained:
[1] = biological target: T1, KGF (hKGF) (Homo sapiens) (UniProt P21781); assay: FP; conditions: 2'-F pyrimidines; method is nitrocellulose filter binding; DPBS, 37 C
T1 sequence: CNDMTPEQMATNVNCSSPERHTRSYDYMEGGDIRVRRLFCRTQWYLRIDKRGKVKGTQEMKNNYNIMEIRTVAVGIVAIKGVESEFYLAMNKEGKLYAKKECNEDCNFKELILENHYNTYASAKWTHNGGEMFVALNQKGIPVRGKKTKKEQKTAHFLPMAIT

[2] = biological target: T1, KGF (hKGF) (Homo sapiens); assay: filter
[3] = biological target: T1, KGF (hKGF) (Homo sapiens); assay: competition; conditions: 2'-F pyrimidines, PC-3 cells
PDGF-AB (Homo sapiens) = PDGF-AB (Homo sapiens) (UniProt P04085+P01127); assay: filter; conditions: 2'-F pyrimidines; +/-7; random pool
Sequence of PDGF-AB (Homo sapiens) (P01127 82-190, chain 2 of 2, other chains not shown): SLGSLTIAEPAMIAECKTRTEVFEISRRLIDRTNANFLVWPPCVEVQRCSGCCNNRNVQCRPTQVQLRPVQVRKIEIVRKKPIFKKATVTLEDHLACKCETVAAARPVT

Sequence: GGGAGGACGAUGCGGGAAUUAACAGGGCCAGAAUUCUCAUCUNNCUUCCCGUGACCCAGACGACUCGCCCGA [12F]
- Kd [1]: 1.38 nM

Sequence: GGGAGGACGAUGCGGAACGGAGAUGUCCCCUCAAMAUUUACCGUCUCCGUUUGCGCCCCAGACGACUCGCCCGA [31F]
- Kd ([2]; 2'-F pyrimidines, DPBS, 37 C): 1 nM

Sequence: GGGAGGACGAUGCGGGAAUUCCCAGCGCUUGACUGAUACAAACNUUCCCGUGCCCCAGACGACUCGCCCGA [16F]
- Kd ([2]; 2'-F pyrimidines, biphasic, high affinity 49%, Kd2 3.39 nM): 0.83 nM

Sequence: GGGAGGACGAUGCGGCAANNNNNNNCUCUCUCCUGGCGUUCCGCAACCCGCCCCCAGACGACUCGCCCGA [19F]
- Kd ([2]; 2'-F pyrimidines, second column 0.94-2.57, DPBS, 37 C): 1.6 nM

Sequence: GGGAGGACGAUGCGGGGACAAWYAGCGGUGUCUUUUCAUUUNKAUCCUCCGACRUCCCAGACGACUCGCCCGA [56F]
- Kd ([2]; 2'-F pyrimidines, biphasic, high affinity 32%, Kd2 3.00 nM, PC-3 Ki 0.16 nM): 0.07 nM
- IC50 [3]: 1 nM
- Ki ([3]; 27.4 nM on NIH3T3/FGFR-2): 0.16 nM

Sequence: GGGAGGACGAUGCGGNNNNNNNNNNNNNNNNNNNNNNNNNNNNNNNNNNNNNNNNCAGACGACUCGCCCGA [random 2'-NH2 RNA 40N7]
- Kd ([2]; 2'-NH2 pyrimidines, random pool): 30 nM

Sequence: GGGAGACAAGAAUAACGCUCAANNNNNNNNNNNNNNNNNNNNNNNNNNNNNNNNNNNNNNNNNNNNNNNNNNUUCGACAGGAGGCUCACAACAGGC [random 2'-F RNA 50N]
- Kd (PDGF-AB (Homo sapiens)): 35 nM

Sequence: GGGAGGACGAUGCGGCAGUCUCCCUAGGUUUCAUCUCUGCAGCAUUCCGGGGUNCCAGACGACUCGCCCGA [51F]
- Kd ([2]; 2'-F pyrimidines, DPBS, 37 C): 1.27 nM

Sequence: GGGAGGACGAUGCGGUCGAGUGUUCUCCUUCGGUAACUAUUNNNNAUUUCGUGCCCAGACGACUCGCCCGA [44F]
- Kd ([2]; 2'-F pyrimidines, DPBS, 37 C): 1.32 nM

Sequence: GGGAGGACGAUGCGGNNNNNNNNNNNNNNNNNNNNNNNNNNNNNNNNNNNNNNNNCAGACGACUCGCCCGA [random 2'-F RNA 40N7]
- Kd ([2]; 2'-F pyrimidines, random pool): 30 nM

Sequence: GGGAGGACGAUGCGGNGACUGAUUUUUCCUUGNCAGUGUAAUUUCCUGGCUGCCCCAGACGACUCGCCCGA [38F]
- Kd ([2]; 2'-F pyrimidines, DPBS, 37 C, PC-3 Ki 0.22 nM): 0.33 nM
- IC50 [3]: 0.6 nM
- Ki ([3]; 20 nM on NIH3T3/FGFR-2): 0.22 nM
